# Assay results taken from PMC4263579.
# Biological target: recombinant NS1 protein (dengue virus non-structural 1 protein)
# Assay: native gel or EMSA; Native-PAGE of the recombinant NS1 protein; data not shown
substance,measurement,value
recombinant NS1 protein (dengue virus non-structural 1 protein),stoichiometry N,6
